Test results published in IntAct's records for PubMed 9422760.

B1: Proline-serine-threonine phosphatase-interacting protein 1 (Homo sapiens), O43586 (parent)
chain: MMPQLQFKDAFWCRDFTAHTGYEVLLQRLLDGRKMCKDMEELLRQRAQAEERYGKELVQIARKAGGQTEINSLRASFDSLKQQMENVGSSHIQLALTLREELRSLEEFRERQKEQRKKYEAVMDRVQKSKLSLYKKAMESKKTYEQKCRDADDAEQAFERISANGHQKQVEKSQNKARQCKDSATEAERVYRQSIAQLEKVRAEWEQEHRTTCEAFQLQEFDRLTILRNALWVHSNQLSMQCVKDDELYEEVRLTLEGCSIDADIDSFIQAKSTGTEPPAPVPYQNYYDREVTPLTSSPGIQPSCGMIKRFSGLLHGSPKTTSLAASAASTETLTPTPERNEGVYTAIAVQEIQGNPASPAQEYRALYDYTAQNPDELDLSAGDILEVILEGEDGWWTVERNGQRGFVPGSYLEKL
partner: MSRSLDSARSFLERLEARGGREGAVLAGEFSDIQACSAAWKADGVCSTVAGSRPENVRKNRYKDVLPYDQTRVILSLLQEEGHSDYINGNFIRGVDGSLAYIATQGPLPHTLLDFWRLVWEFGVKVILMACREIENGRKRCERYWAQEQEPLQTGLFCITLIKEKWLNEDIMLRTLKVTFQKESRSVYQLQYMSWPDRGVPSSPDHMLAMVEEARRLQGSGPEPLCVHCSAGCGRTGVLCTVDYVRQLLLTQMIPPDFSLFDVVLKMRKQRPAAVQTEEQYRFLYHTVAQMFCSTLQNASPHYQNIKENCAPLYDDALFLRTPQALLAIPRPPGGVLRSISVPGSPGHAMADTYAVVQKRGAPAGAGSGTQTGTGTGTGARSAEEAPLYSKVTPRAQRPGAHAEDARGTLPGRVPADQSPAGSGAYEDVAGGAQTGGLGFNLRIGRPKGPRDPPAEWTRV
B2: Tyrosine-protein phosphatase non-receptor type 18 (Homo sapiens), Q99952 (parent)
chain: B1 partner

Variants of: B1
Conditions: with ptn18_human PTPN18, Q99952

Row | Variant | effect of a mutation on the interaction
1 | W232A | disrupting interaction

Variants of: B2
Conditions: with ppip1_human PSTPIP1, O43586

Row | Variant | effect of a mutation on the interaction
2 | MSRSLDSARSFLERLEARGGREGAVLAGEFSDIQACSAAWKADGVCSTVAGSRPENVRKNRYKDVLPYDQTRVILSLLQEEGHSDYINGNFIRGVDGSLAYIATQGPLPHTLLDFWRLVWEFGVKVILMACREIENGRKRCERYWAQEQEPLQTGLFCITLIKEKWLNEDIMLRTLKVTFQKESRSVYQLQYMSWPDRGVPSSPDHMLAMVEEARRLQGSGPEPLCVHCSAGCGRTGVLCTVDYVRQLLLTQMIPPDFSLFDVVLKMRKQRPAAVQTEEQYRFLYHTVAQMFCSTLQNASPHYQNIKENCAPLYDDALFLRTPQALLAIPRPPGGVLRSISVPGSPGHAMADTYAVVQKRGAPAGAGSGTQTGTGTGTGARSAEEAPLYSKVTPRAQRPGAHAEDARGTLPGRVPADQSPAGSGAYEDVAGGAQTGGLGFNLRIGRAKGPRDPPAEWTRV [P447A] | disrupting interaction

Variants of: B2
Conditions: with ppip1_human PSTPIP1, O43586
Remark: another data set of the same source

Row | Variant | effect of a mutation on the interaction
3 | MSRSLDSARSFLERLEARGGREGAVLAGEFSDIQACSAAWKADGVCSTVAGSRPENVRKNRYKDVLPYDQTRVILSLLQEEGHSDYINGNFIRGVDGSLAYIATQGPLPHTLLDFWRLVWEFGVKVILMACREIENGRKRCERYWAQEQEPLQTGLFCITLIKEKWLNEDIMLRTLKVTFQKESRSVYQLQYMSWPDRGVPSSPDHMLAMVEEARRLQGSGPEPLCVHSSAGCGRTGVLCTVDYVRQLLLTQMIPPDFSLFDVVLKMRKQRPAAVQTEEQYRFLYHTVAQMFCSTLQNASPHYQNIKENCAPLYDDALFLRTPQALLAIPRPPGGVLRSISVPGSPGHAMADTYAVVQKRGAPAGAGSGTQTGTGTGTGARSAEEAPLYSKVTPRAQRPGAHAEDARGTLPGRVPADQSPAGSGAYEDVAGGAQTGGLGFNLRIGRPKGPRDPPAEWTRV [C229S] | increasing interaction
